Results taken from US12624112 (MABWELL SHANGHAI BIOSCIENCE, dated 2026).

How the values were obtained:
[1] = target: T1, ST2 on the effector cells (KU812, KU812/NF-κB-1#, HUVEC, HMC-1) (human, UniProt Q01638 19-556); assay: cell-based or functional assay
T1 sequence (looked up): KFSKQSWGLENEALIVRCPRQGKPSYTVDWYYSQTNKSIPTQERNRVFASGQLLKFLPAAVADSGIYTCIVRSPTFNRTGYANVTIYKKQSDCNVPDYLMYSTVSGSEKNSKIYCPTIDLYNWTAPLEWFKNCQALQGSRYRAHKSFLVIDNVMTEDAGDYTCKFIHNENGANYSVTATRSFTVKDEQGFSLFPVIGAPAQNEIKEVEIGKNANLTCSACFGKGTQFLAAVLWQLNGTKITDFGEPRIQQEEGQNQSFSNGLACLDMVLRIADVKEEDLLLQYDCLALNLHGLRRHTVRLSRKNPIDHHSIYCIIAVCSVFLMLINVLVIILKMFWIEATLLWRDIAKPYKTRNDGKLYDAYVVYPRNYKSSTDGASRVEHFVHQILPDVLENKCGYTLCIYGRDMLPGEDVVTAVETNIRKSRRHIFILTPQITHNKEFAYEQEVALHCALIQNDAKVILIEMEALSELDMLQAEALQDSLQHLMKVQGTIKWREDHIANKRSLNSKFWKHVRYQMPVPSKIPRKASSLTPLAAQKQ

[2] = target: T1, ST2 on the effector cells (KU812, …); assay: cell-based or functional assay; remark: listed apart in the source
[3] = target: T1, ST2 on the effector cells (KU812, …); assay: cell-based or functional assay; remark: listed apart in the source
[4] = target: T1, ST2 on the effector cells (KU812, …); assay: cell-based or functional assay; remark: listed apart in the source
[5] = target: T1, ST2 on the effector cells (KU812, …); assay: cell-based or functional assay; remark: listed apart in the source
[6] = target: Human ST2-fc (human) (UniProt Q01638); assay: competition ELISA, coated ST2-fc, competitor IL33-his
[7] = target: T2, Human ST2-his (human, UniProt Q01638-2 19-328, limits assumed); assay: SPR Biacore X100, ratio of kd at pH 5.5 to kd at pH 7.4
T2 construct: Expressed in CHO-K1; The printed range starts at Met1; also called human ST2 fused with a 6-histidine tag at the C-terminus
T2 sequence: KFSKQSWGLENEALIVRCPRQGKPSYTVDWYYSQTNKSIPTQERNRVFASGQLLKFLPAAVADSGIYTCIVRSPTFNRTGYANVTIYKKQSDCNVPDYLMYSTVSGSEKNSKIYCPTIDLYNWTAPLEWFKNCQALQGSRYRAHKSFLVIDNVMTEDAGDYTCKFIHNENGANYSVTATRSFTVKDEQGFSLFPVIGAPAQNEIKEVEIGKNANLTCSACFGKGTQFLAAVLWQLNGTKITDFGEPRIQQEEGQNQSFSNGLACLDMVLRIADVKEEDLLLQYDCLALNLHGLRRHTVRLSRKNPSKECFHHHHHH
Experimental: (§1) The experiment on the interaction between the anti-human ST2 antibodies and human ST2-his was performed using Biacore X100.
(§2) Each anti-human ST2 antibody was diluted to 2 µg/mL and captured on the surface of a protein A chip for a capture time of 60 s. Following the antibody capture, a solution of human ST2-his (2-fold gradient dilution from a starting concentration of 20 nM, to obtain 6 concentrations in total) was injected. Association was monitored for 180 s and dissociation was monitored for 700 s, and the sensor surface was regenerated by injecting a solution of glycine at pH 2.0. Kinetic data were analyzed using a simple 1:1 binding model.

[8] = target: T2, Human ST2-his; assay: SPR Biacore X100, antibody captured on protein A chip, human ST2-his injected, pH 7.4
Experimental: as §1, §2

[9] = target: T2, Human ST2-his; assay: SPR Biacore X100, antibody captured on protein A chip, human ST2-his injected, dissociation at pH 5.5
Experimental: as §1, §2

[10] = target: T1, ST2 on the effector cells (KU812, …); assay: cell-based or functional assay; remark: listed apart in the source

B1: 5888-379-H2L1 (antibody, human IgG4 S228P, kappa, V domains shown)
VH: QVQLVQSGAEVKKPGASVKVSCKASGYTFINYGMNWVRQAPGQRLEWMGWINTYIGEPTYGDNFKGRVTITRDTSASTAYMELSSLRSEDTAVYYCAREGDAFAYWGQGTLVTVSS
VL: DIQMTQSPSSLSASVGDRVTITCKSSQSLLYSGNQNNYLAWYQQKPGKVPKLLIYGASTRESGVPSRFSGSGSGTDFTLTISSLQPEDLATYYCQNDHSYPYTFGGGTKVEIKR
notes: Humanized antibody
IC50, inhibition of KU812-IL5 production promoted by IL-33 (human IL33-his) [1]: 0.0839 µg/mL | Maximum inhibition rate, KU812-IL5 production by IL-33 [1]: 98% | Relative activity compared with CNTO7160, KU812-IL5 production by IL-33 [1]: 121% | IC50, inhibition of KU812-IL5 production promoted by oxidized IL33 [2]: 0.0228 µg/mL | Maximum inhibition rate, KU812-IL5 production by oxidized IL33 [2]: 101% | Relative activity, KU812-IL5 production by oxidized IL33 [2]: 96.8% | IC50, inhibition of KU812-IL5 production promoted by reduced IL33 [3]: 2.87 µg/mL | Maximum inhibition rate, KU812-IL5 production by reduced IL33 [3]: 96.7% | Relative activity, KU812-IL5 production by reduced IL33 [3]: 51.1% | IC50, inhibition of HUVEC-IL6 production promoted by IL33 [4]: 26.1 µg/mL | Maximum inhibition rate, HUVEC-IL6 production by IL33 [4]: 71.6% | Relative activity, HUVEC-IL6 production by IL33 [4]: 10.4% | IC50, inhibition of HMC-1 IL8 production promoted by IL33 [5]: 0.23 µg/mL | Maximum inhibition rate, HMC-1 IL8 production by IL33 [5]: 90.2% | Relative activity, HMC-1 IL8 production by IL33 [5]: 43.8% | IC50 [6]: 0.427 µg/mL | Maximum inhibition rate [6]: 84.8% | Relative activity compared with CNTO7160 [6]: 206% | kd ratio of pH 5.5/pH 7.4 [7]: 11.9 | Kd [8]: 0.495 nM | koff [8]: 0.000485 s⁻¹ | kon [8]: 979000 M⁻¹ s⁻¹ | Kd [9]: 1.67 nM | koff [9]: 0.00575 s⁻¹ | kon [9]: 3.46e+06 M⁻¹ s⁻¹

B2: 5888-116-H0L1 (antibody, human IgG4 S228P, kappa, V domains shown)
VH: QVQLVQSGAEVKKPGASVKVSCKASGYTFTDSEMYWVRQAPGQGLEWMGAIDPETGDTAFNQKFKGRVTMTRDTSTSTVYMELSSLRSEDTAVYYCARAFDNDNDDGFAYWGQGTMVTVSS
VL: DIQMTQSPSSLSASVGDRVTITCSASSSVNYMHWYQQKPGKAPKRLIYDTSKLASGVPSRFSGSGSGTDYTFTISSLQPEDAATYYCQQWSSNPLTFGQGTKLEIKR
notes: Humanized antibody
IC50, inhibition of KU812-IL5 production promoted by IL-33 (human IL33-his) [1]: 0.00929 µg/mL | Maximum inhibition rate, KU812-IL5 production by IL-33 [1]: 98.3% | Relative activity compared with CNTO7160, KU812-IL5 production by IL-33 [1]: 656% | IC50, inhibition of activation of KU812-NF-κB reporter gene by IL33 [10]: 0.013 µg/mL | Maximum inhibition rate, KU812-NF-κB reporter gene [10]: 95.7% | Relative activity compared with CNTO7160, KU812-NF-κB reporter gene [10]: 1540% | IC50, inhibition of KU812-IL5 production promoted by oxidized IL33 [2]: 0.0036 µg/mL | Maximum inhibition rate, KU812-IL5 production by oxidized IL33 [2]: 102% | Relative activity, KU812-IL5 production by oxidized IL33 [2]: 614% | IC50, inhibition of KU812-IL5 production promoted by reduced IL33 [3]: 0.124 µg/mL | Maximum inhibition rate, KU812-IL5 production by reduced IL33 [3]: 75.1% | Relative activity, KU812-IL5 production by reduced IL33 [3]: 1180% | IC50, inhibition of HUVEC-IL6 production promoted by IL33 [4]: 0.832 µg/mL | Maximum inhibition rate, HUVEC-IL6 production by IL33 [4]: 92.6% | Relative activity, HUVEC-IL6 production by IL33 [4]: 328% | IC50, inhibition of HMC-1 IL8 production promoted by IL33 [5]: 0.00551 µg/mL | Maximum inhibition rate, HMC-1 IL8 production by IL33 [5]: 90.6% | Relative activity, HMC-1 IL8 production by IL33 [5]: 1830% | IC50 [6]: 0.0204 µg/mL | Maximum inhibition rate [6]: 94.1% | Relative activity compared with CNTO7160 [6]: 5200% | kd ratio of pH 5.5/pH 7.4 [7]: 3.02 | Kd [8]: 0.259 nM | koff [8]: 0.000464 s⁻¹ | kon [8]: 1.79e+06 M⁻¹ s⁻¹ | Kd [9]: 0.474 nM | koff [9]: 0.0014 s⁻¹ | kon [9]: 2.95e+06 M⁻¹ s⁻¹
